Data from US20170306346.

Target: GST-MYC2-HA (UniProt Q39204)
Sequence (Q39204 whole entry): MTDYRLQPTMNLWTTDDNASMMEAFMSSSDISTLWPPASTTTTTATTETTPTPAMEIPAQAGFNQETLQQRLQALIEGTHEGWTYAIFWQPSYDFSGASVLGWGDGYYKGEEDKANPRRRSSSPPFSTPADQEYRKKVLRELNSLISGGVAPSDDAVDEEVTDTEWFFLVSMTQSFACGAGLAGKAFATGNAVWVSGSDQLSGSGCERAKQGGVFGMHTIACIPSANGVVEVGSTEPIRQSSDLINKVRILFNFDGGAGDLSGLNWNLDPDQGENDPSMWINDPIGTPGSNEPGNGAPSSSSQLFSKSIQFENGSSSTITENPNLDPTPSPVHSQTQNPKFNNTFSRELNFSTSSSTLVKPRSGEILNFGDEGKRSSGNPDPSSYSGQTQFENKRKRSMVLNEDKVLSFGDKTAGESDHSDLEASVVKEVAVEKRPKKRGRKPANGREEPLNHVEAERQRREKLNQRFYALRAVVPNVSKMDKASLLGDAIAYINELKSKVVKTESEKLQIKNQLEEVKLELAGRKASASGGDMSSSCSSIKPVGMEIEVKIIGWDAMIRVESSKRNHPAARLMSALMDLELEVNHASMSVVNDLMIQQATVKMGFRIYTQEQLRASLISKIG

MBP-PUB11 (C247A)-myc
in vitro ubiquitination of MYC2 (E1, E2, Ub; Western blot): MBP-PUB11 (C247A)-myc mutant protein has no E3 activity for GST-MYC-HA
